# Where two headings read alike, the source gives them in different places. Where a SMILES comes first, the peptide text is derived from it. Where no end group is shown, it is not given here. Side-chain parts run from the residue outwards. [ ]: non-standard residue; d: D form. The star is where a group is joined. ξ: configuration not given here. X9 = CCc1c2c(nc3ccc(OC(=O)[C@H]4CC[C@H](CNC(=O)CCOCCOCCOCCOCCNC(=O)CCN5C(=O)CC(*)C5=O)CC4)cc13)-c1cc3c(c(=O)n1C2)COC(=O)[C@]3(O)CC; X6 = CCc1c2c(nc3ccc(OC(=O)[C@H]4CC[C@H](CNC(=O)C5CCC(CN6C(=O)CC(*)C6=O)CC5)CC4)cc13)-c1cc3c(c(=O)n1C2)COC(=O)[C@]3(O)CC; X7 = CCc1c2c(nc3ccc(OC(=O)CCCCCCCCCCN4C(=O)CC(*)C4=O)cc13)-c1cc3c(c(=O)n1C2)COC(=O)[C@]3(O)CC; X5 = CCc1c2c(nc3ccc(OC(=O)CCN4C(=O)CC(*)C4=O)cc13)-c1cc3c(c(=O)n1C2)COC(=O)[C@]3(O)CC; X8 = CC[C@@]1(O)C(=O)OCc2c1cc1n(c2=O)Cc2cc3cc(OC(=O)CCN4C(=O)CC(*)C4=O)ccc3nc2-1; SN38 = active drug (irinotecan metabolite) conjugated via the linker; MIC = not defined here; ξC = NC(CS)C(=O)O
# What was measured:
# [1] = Stability of conjugates in citrated plasma at 37° C. (half life time, HPLC fluorescence); format: in vitro ADME, human; settings: for half-life: human, plasma
# Procedure: (§1) The stability of the conjugates was tested in citrated plasma (10% (v/v) sodium citrate buffer, 0.106M) from different species (see Table 1 below). The conjugates at 2.55 μM were incubated at 37° C. in plasma. Samples were analysed using the HPLC fluorescence method described below (see chromatographic equipment and conditions) following TFA/acetonitrile extraction and the amount of free camptothecin, analogs or derivatives thereof (e.g. SN38) released by the conjugates was measured.
# (§2) Chromatographic equipment and conditions: 150 μL of each sample were placed in 1.5 mL micro-centrifuge tubes. 450 μL of 5% (v/v) TFA in H2O was added to each tube and the mixture was vortexed for 5 seconds. Samples were then centrifuged at 16000 g, 3 minutes at +4° C. 100 μL of supernatant were placed in 1.5 mL micro-centrifuge tubes. Methanol (100 μL) was then immediately added and vortexed for 5 seconds. Samples were then centrifuged at 16000 g, 3 minutes at room temperature. 150 μL of supernatant were recovered for HPLC analysis. Conjugates, metabolites and camptothecin derivative (i.e. SN38) were separated by high-performance liquid chromatography (HPLC; Agilent 1100 series equipped with a fluorescence detector) using a 4.6×100 mm ([…] particle size) Luna C18(2) column (Phenomenex ref. 00D-4251-E0, Le Pecq, France). The aqueous component of the mobile phase (A) was 0.1% (v/v) TFA in water. The organic modifier (B) was acetonitrile containing 0.1% (v/v) TFA. For the conjugate and its metabolites an elution gradient increasing linearly the proportion of B from 15 to 37% in 2 min, from 37 to 47% in 6 min, followed by 2 min at 90% was applied with a constant flow rate of 1.2 mL/min. The proportion of B was then returned to the initial condition for 3.0 min.
# (§3) The half life time of conjugate corresponds to the time necessary to have 50% by mole of free camptothecin, analogs or derivatives thereof released by the conjugates of the invention. In human plasma, the half life time of conjugate DPV1047-linker #1-SN38 (less than 5 mins) was shorter than that of conjugate DPV1047-linker #2-SN38 (6-7 mins), which, in turn, was shorter than that of conjugate DPV1047-linker #3-SN38 (12 mins).
# (§4) As in Example II, the stability of these conjugates was tested in either human or dog plasma. Following incubation at 37° C., samples were analyzed after a TFA acetonitrile extraction by the HPLC fluorescence method described in Example II. The in vitro cytotoxicity (IC50) of these compounds was also evaluated.
# [2] = as above; format: in vitro ADME; settings: dog, read-out: Dog Plasma Half life time
# Procedure: as §1, §2, §3, §4
# [3] = test system: HCT 116 human colorectal carcinoma tumor
# [4] = Table 10, SN38 conjugates, read-out: Human Plasma Half life time
# [5] = Table 14, 10-Hydroxycamptothecin conjugates, read-out: Human Plasma Half life time
# [6] = Table 14, 10-Hydroxycamptothecin conjugates
# [7] = DPV1047-linker-SN38, 2.55 μM, citrated plasma
# [8] = DPV1047-linker-SN38, 2.55 μM, citrated plasma, read-out: Half life time, Human plasma
Compound,"half-life [1, 4]","half-life ([2]; Table 10, SN38 conjugates)","half-life [1, 8]",further results
CCc1c2c(nc3ccc(OC(=O)[C@H]4CC[C@H](CNC(=O)C5CCC(CN6C(=O)CC(SC[C@H](NC(=O)[C@@H]7CCCN7C(=O)[C@H](CC(=O)O)NC(=O)[C@H](CCCNC(=N)N)NC(=O)[C@H](CCCCN)NC(=O)[C@H](CCCCN)NC(=O)CNC(=O)[C@H](CC(C)C)NC(=O)[C@H](CCCCN)NC(=O)CNC(=O)[C@H](CCCCN)NC(=O)[C@H](CCCCN)NC(=O)[C@H](CCCCN)NC(=O)[C@H](CCCNC(=N)N)NC(=O)[C@H](CCCCN)NC(=O)CN)C(=O)O)C6=O)CC5)CC4)cc13)-c1cc3c(c(=O)n1C2)COC(=O)[C@]3(O)CC (stereo partly drawn) [DPV7-linker #5-SN38] (H-GKRKKKGKLGKKRDPC(X6)-OH; N-terminus and C-terminus assumed),162 min,112 min,–,–
CCc1c2c(nc3ccc(OC(=O)[C@H]4CC[C@H](CNC(=O)C5CCC(CN6C(=O)CC(SCC(N)C(=O)N[C@H](CCCCN)C(=O)N[C@H](CCCNC(=N)N)C(=O)NCC(=O)N[C@H](CC(C)C)C(=O)N[C@H](CCCCN)C(=O)N[C@H](CC(C)C)C(=O)N[C@H](CCCNC(=N)N)C(=O)N[C@H](Cc7c[nH]cn7)C(=O)O)C6=O)CC5)CC4)cc13)-c1cc3c(c(=O)n1C2)COC(=O)[C@]3(O)CC (stereo partly drawn) [DPV51(D)-linker #5-SN38] (H-[ξC](X6)[dK][dR]G[dL][dK][dL][dR][dH]-OH; N-terminus and C-terminus assumed),–,–,–,"half-life ([1]; Table 12, CPP-linker #5-SN38 conjugates incl. D conformation, read-out: Human Plasma Half life time): 267 min; half-life ([2]; Table 12, CPP-linker #5-SN38 conjugates incl. D conformation): 175 min"
CC[C@@]1(O)C(=O)OCc2c1cc1n(c2=O)Cc2cc3cc(OC(=O)CCN4C(=O)CC(SC[C@H](N)C(=O)N[C@H](C(=O)N[C@@H](CCCCN)C(=O)N[C@@H](CCCNC(=N)N)C(=O)NCC(=O)N[C@@H](CC(C)C)C(=O)N[C@@H](CCCCN)C(=O)N[C@@H](CC(C)C)C(=O)N[C@@H](CCCNC(=N)N)C(=O)N[C@@H](Cc5c[nH]cn5)C(=O)N[C@H](C(=O)N[C@@H](CCCNC(=N)N)C(=O)N5CCC[C@H]5C(=O)N[C@@H](CCCNC(=N)N)C(=O)N[C@H](C(=O)N[C@H](C(=O)N[C@@H](CCCNC(=N)N)C(=O)N[C@@H](CCSC)C(=O)N[C@@H](CC(=O)O)C(=O)N[C@H](C(=O)O)C(C)C)[C@@H](C)O)C(C)C)C(C)C)C(C)C)C4=O)ccc3nc2-1 (stereo partly drawn) [DPV1047-linker #1-10 Hydroxycamptothecin] (H-C(X8)VKRGLKLRHVRPRVTRMDV-OH),–,–,–,"half-life [1, 5]: < 3 min; half-life [2, 6]: 3 min"
CCc1c2c(nc3ccc(OC(=O)CCN4C(=O)CC(SC[C@H](N)C(=O)N[C@H](C(=O)N[C@@H](CCCCN)C(=O)N[C@@H](CCCNC(=N)N)C(=O)NCC(=O)N[C@@H](CC(C)C)C(=O)N[C@@H](CCCCN)C(=O)N[C@@H](CC(C)C)C(=O)N[C@@H](CCCNC(=N)N)C(=O)N[C@@H](Cc5c[nH]cn5)C(=O)N[C@H](C(=O)N[C@@H](CCCNC(=N)N)C(=O)N5CCC[C@H]5C(=O)N[C@@H](CCCNC(=N)N)C(=O)N[C@H](C(=O)N[C@H](C(=O)N[C@@H](CCCNC(=N)N)C(=O)N[C@@H](CCSC)C(=O)N[C@@H](CC(=O)O)C(=O)N[C@H](C(=O)O)C(C)C)[C@@H](C)O)C(C)C)C(C)C)C(C)C)C4=O)cc13)-c1cc3c(c(=O)n1C2)COC(=O)[C@]3(O)CC (stereo partly drawn) [DPV1047-linker #1-SN38] (H-C(X5)VKRGLKLRHVRPRVTRMDV-OH),< 3 min,11.3 min,< 5 min,"Half life time, Human plasma [1, 7]: <5 min"
CCc1c2c(nc3ccc(OC(=O)CCCCCCCCCCN4C(=O)CC(SC[C@H](N)C(=O)N[C@H](C(=O)N[C@@H](CCCCN)C(=O)N[C@@H](CCCNC(=N)N)C(=O)NCC(=O)N[C@@H](CC(C)C)C(=O)N[C@@H](CCCCN)C(=O)N[C@@H](CC(C)C)C(=O)N[C@@H](CCCNC(=N)N)C(=O)N[C@@H](Cc5c[nH]cn5)C(=O)N[C@H](C(=O)N[C@@H](CCCNC(=N)N)C(=O)N5CCC[C@H]5C(=O)N[C@@H](CCCNC(=N)N)C(=O)N[C@H](C(=O)N[C@H](C(=O)N[C@@H](CCCNC(=N)N)C(=O)N[C@@H](CCSC)C(=O)N[C@@H](CC(=O)O)C(=O)N[C@H](C(=O)O)C(C)C)[C@@H](C)O)C(C)C)C(C)C)C(C)C)C4=O)cc13)-c1cc3c(c(=O)n1C2)COC(=O)[C@]3(O)CC (stereo partly drawn) [DPV1047-linker #3-SN38] (H-C(X7)VKRGLKLRHVRPRVTRMDV-OH),–,–,12 min,"Half life time, Human plasma [1, 7]: 8 to 9 min"
CCc1c2c(nc3ccc(OC(=O)[C@H]4CC[C@H](CNC(=O)CCOCCOCCOCCOCCNC(=O)CCN5C(=O)CC(SC[C@H](N)C(=O)N[C@H](C(=O)N[C@@H](CCCCN)C(=O)N[C@@H](CCCNC(=N)N)C(=O)NCC(=O)N[C@@H](CC(C)C)C(=O)N[C@@H](CCCCN)C(=O)N[C@@H](CC(C)C)C(=O)N[C@@H](CCCNC(=N)N)C(=O)N[C@@H](Cc6c[nH]cn6)C(=O)N[C@H](C(=O)N[C@@H](CCCNC(=N)N)C(=O)N6CCC[C@H]6C(=O)N[C@@H](CCCNC(=N)N)C(=O)N[C@H](C(=O)N[C@H](C(=O)N[C@@H](CCCNC(=N)N)C(=O)N[C@@H](CCSC)C(=O)N[C@@H](CC(=O)O)C(=O)N[C@H](C(=O)O)C(C)C)[C@@H](C)O)C(C)C)C(C)C)C(C)C)C5=O)CC4)cc13)-c1cc3c(c(=O)n1C2)COC(=O)[C@]3(O)CC (stereo partly drawn) [DPV1047-linker #6-SN38] (H-C(X9)VKRGLKLRHVRPRVTRMDV-OH; N-terminus and C-terminus assumed),–,–,30 min,–
CCc1c2c(nc3ccc(OC(=O)CCN4C(=O)CC(SC[C@H](N)C(=O)N[C@@H](CCCNC(=N)N)C(=O)N[C@@H](CCC(N)=O)C(=O)N[C@H](C(=O)N[C@@H](CCCCN)C(=O)N[C@H](C(=O)N[C@@H](Cc5c[nH]c6ccccc56)C(=O)N[C@@H](Cc5ccccc5)C(=O)N[C@@H](CCC(N)=O)C(=O)N[C@@H](CC(N)=O)C(=O)N[C@@H](CCCNC(=N)N)C(=O)N[C@@H](CCCNC(=N)N)C(=O)N[C@@H](CCSC)C(=O)N[C@@H](CCCCN)C(=O)N[C@@H](Cc5c[nH]c6ccccc56)C(=O)N[C@@H](CCCCN)C(=O)N[C@@H](CCCCN)C(=O)O)[C@@H](C)CC)[C@@H](C)CC)C4=O)cc13)-c1cc3c(c(=O)n1C2)COC(=O)[C@]3(O)CC (stereo partly drawn) [Penetratin-linker #1-SN38],< 3 min,16.5 min,–,–
CC[C@@]1(O)C(=O)OCc2c1cc1n(c2=O)Cc2cc3cc(OC(=O)CCCCCNC(=O)C4CCC(CN5C(=O)CC(SC[C@H](NC(=O)[C@H](CCC(N)=O)NC(=O)[C@@H]6CCCN6C(=O)[C@@H]6CCCN6C(=O)[C@H](CCCNC(=N)N)NC(=O)[C@H](CCCNC(=N)N)NC(=O)[C@H](CCCNC(=N)N)NC(=O)[C@H](CCC(N)=O)NC(=O)[C@H](CCCNC(=N)N)NC(=O)[C@H](CCCNC(=N)N)NC(=O)[C@H](CCCCN)NC(=O)[C@H](CCCCN)NC(=O)[C@H](CCCNC(=N)N)NC(=O)CN)C(=O)O)C5=O)CC4)ccc3nc2-1 (stereo partly drawn) [Tat-linker #4-10 Hydroxycamptothecin],–,–,–,"half-life [1, 5]: 7.3 min; half-life [2, 6]: 20 min"
CCc1c2c(nc3ccc(OC(=O)[C@H]4CC[C@H](CNC(=O)C5CCC(CN6C(=O)CC(SC[C@H](NC(=O)[C@H](CCC(N)=O)NC(=O)[C@@H]7CCCN7C(=O)[C@@H]7CCCN7C(=O)[C@H](CCCNC(=N)N)NC(=O)[C@H](CCCNC(=N)N)NC(=O)[C@H](CCCNC(=N)N)NC(=O)[C@H](CCC(N)=O)NC(=O)[C@H](CCCNC(=N)N)NC(=O)[C@H](CCCNC(=N)N)NC(=O)[C@H](CCCCN)NC(=O)[C@H](CCCCN)NC(=O)[C@H](CCCNC(=N)N)NC(=O)CN)C(=O)O)C6=O)CC5)CC4)cc13)-c1cc3c(c(=O)n1C2)COC(=O)[C@]3(O)CC (stereo partly drawn) [Tat-linker #5-SN38],335 min,122 min,–,–
PolyE(16)-MIC-SN38: non cell-penetrating PolyE(16) peptide coupled via MIC linker to SN38 (EEEEEEEEEEEEEEEEC([MIC-SN38]); not fully specified; reading uncertain; also: SN38 attached through MIC linker at Cys) [reference compound],–,–,–,"activity in the HCT 116 model ([3]; 40 μmol/kg, Q4D×3): not active; TGI (100-T/C %) ([3]; Table 5, Q4Dx3, DPV1047-BCH-SN38 30, PolyE(16)-MIC-SN38 40, irinotecan 48 μmol/kg): 30%"

# — US8410045B2, “Camptothecin-peptide conjugates and pharmaceutical compositions containing the same” (Drais Pharmaceuticals, Inc., priority 2006, dated 2013)
